Reference: patent JP2006306895A (dated 2006)

B1: ヒト型化#23-57-137-1抗体 L鎖バージョン"j" (antibody, V domains shown)
VH: QVQLVESGGGVVQPGRSLRLSCAASGFTFSSYGMSWVRQAPGKGLEWVATISSGGSYTYYPDSVKGRFTISRDNSKNTLYLQMNSLRAEDTAVYYCARQTTMTYFAYWGQGTLVTVSS
VL: QLVLTQSPSASASLGASVKLTCTLSSQHSTYTIEWYQQQPEKGPKYLMDLKQDGSHSTGDGIPDRFSGSSSGAERYLTISSLQSEDEADYYCGVGDTIKEQFVYVFGGGTKLTVLG
notes: Humanized H chain version a with human Cγ1; human lambda L chain C region; also called hMBC1HcDNA/pCOS1 + hMBC1Ljλ/pCOS1; version j
B2: ヒト型化#23-57-137-1抗体 L鎖バージョン"q" (antibody, V domains shown)
VH: QVQLVESGGGVVQPGRSLRLSCAASGFTFSSYGMSWVRQAPGKGLEWVATISSGGSYTYYPDSVKGRFTISRDNSKNTLYLQMNSLRAEDTAVYYCARQTTMTYFAYWGQGTLVTVSS
VL: QLVLTQSPSASASLGASVKLTCTLSSQHSTYTIEWYQQQPEKGPKYLMDLKQDGSHSTGDGIPDRFSGSSSGAERYLTISSLQSEDEADYICGVGDTIKEQFVYVFGGGTKLTVLG
notes: Humanized H chain version a with human Cγ1; human lambda L chain C region; also called ヒト型化抗体バージョンq; hMBC1HcDNA/pCOS1 + hMBC1Lqλ/pCOS1
B3: ヒト型化#23-57-137-1抗体 L鎖バージョン"t" (antibody, V domains shown)
VH: QVQLVESGGGVVQPGRSLRLSCAASGFTFSSYGMSWVRQAPGKGLEWVATISSGGSYTYYPDSVKGRFTISRDNSKNTLYLQMNSLRAEDTAVYYCARQTTMTYFAYWGQGTLVTVSS
VL: QLVLTQSPSASASLGASVKLTCTLSSQHSTYTIEWYQQQPEKGPRYVMDLKQDGSHSTGDGIPDRFSGSSSGAERYLTISSLQSEDEADYICGVGDTIKEQFVYVFGGGTKLTVLG
notes: Humanized H chain version a with human Cγ1; human lambda L chain C region; also called hMBC1HcDNA/pCOS1 + hMBC1Ltλ/pCOS1; version t
B4: ヒト型化H鎖バージョン"a"とキメラL鎖を組み合わせた抗体 (antibody, V domains shown)
VH: QVQLVESGGGVVQPGRSLRLSCAASGFTFSSYGMSWVRQAPGKGLEWVATISSGGSYTYYPDSVKGRFTISRDNSKNTLYLQMNSLRAEDTAVYYCARQTTMTYFAYWGQGTLVTVSS
VL: QLVLTQSSSASFSLGASAKLTCTLSSQHSTYTIEWYQQQPLKPPKYVMDLKQDGSHSTGDGIPDRFSGSSSGADRYLSISNIQPEDEAMYICGVGDTIKEQFVYVFGGGTKVTVLG
notes: Human Cγ1 H chain C region; also called humanized H chain version a + chimeric L chain
B5: ヒト型化#23-57-137-1抗体 L鎖バージョン"o" (antibody, V domains shown)
VH: QVQLVESGGGVVQPGRSLRLSCAASGFTFSSYGMSWVRQAPGKGLEWVATISSGGSYTYYPDSVKGRFTISRDNSKNTLYLQMNSLRAEDTAVYYCARQTTMTYFAYWGQGTLVTVSS
VL: QLVLTQSPSASASLGASVKLTCTLSSQHSTYTIEWYQQQPEKGPRYVMDLKQDGSHSTGDGIPDRFSGSSSGAERYLTISSLQSEDEADYYCGVGDTIKEQFVYVFGGGTKLTVLG
notes: Humanized H chain version a with human Cγ1; human lambda L chain C region; also called hMBC1HcDNA/pCOS1 + hMBC1Loλ/pCOS1; version o
B6: ヒト型化#23-57-137-1抗体 L鎖バージョン"m" (antibody, V domains shown)
VH: QVQLVESGGGVVQPGRSLRLSCAASGFTFSSYGMSWVRQAPGKGLEWVATISSGGSYTYYPDSVKGRFTISRDNSKNTLYLQMNSLRAEDTAVYYCARQTTMTYFAYWGQGTLVTVSS
VL: QLVLTQSPSASASLGASVKLTCTLSSQHSTYTIEWYQQQPEKGPRYLMDLKQDGSHSTGDGIPDRFSGSSSGAERYLTISSLQSEDEADYYCGVGDTIKEQFVYVFGGGTKLTVLG
notes: Humanized H chain version a with human Cγ1; human lambda L chain C region; also called hMBC1HcDNA/pCOS1 + hMBC1Lmλ/pCOS1; version m
B7: ヒト型化#23-57-137-1抗体 L鎖バージョン"l" (antibody, V domains shown)
VH: QVQLVESGGGVVQPGRSLRLSCAASGFTFSSYGMSWVRQAPGKGLEWVATISSGGSYTYYPDSVKGRFTISRDNSKNTLYLQMNSLRAEDTAVYYCARQTTMTYFAYWGQGTLVTVSS
VL: QLVLTQSPSASASLGASVKLTCTLSSQHSTYTIEWYQQQPEKGPKYVMDLKQDGSHSTGDGIPDRFSGSSSGAERYLTISSLQSEDEADYYCGVGDTIKEQFVYVFGGGTKLTVLG
notes: Humanized H chain version a with human Cγ1; human lambda L chain C region; also called hMBC1HcDNA/pCOS1 + hMBC1Llλ/pCOS1; version l

Molecular target: T1, ヒトPTHrP(1-34) (human)
T1 construct: Synthetic peptide, coated on ELISA plates (Peptide Institute) or mixed with antibody in the cAMP neutralisation assay; also called human parathyroid hormone related protein (1-34)
Test: ELISA, plate-coated human PTHrP(1-34)

Binding result, binds:
B1, B2, B3, B4, B5, B6, B7
